Test results: PMC4022514, “The C-Terminal Domain from S. cerevisiae Pat1 Displays Two Conserved Regions Involved in Decapping Factor Recruitment” (PLoS ONE, 2014)

What was measured:
Scd6 (two-hybrid fusion) = target: T1, Scd6 (two-hybrid fusion) (S. cerevisiae, UniProt P45978 1-349); test: two-hybrid; yeast strain BSY2475, isogenic to MAV203 but lacking Edc3 (Δedc3); β-galactosidase activity by Beta-Glo; Pat1 fused to Gal4AD; details: partners not purified
T1 construct: Scd6, S. cerevisiae; source: yeast two-hybrid fusion
T1 sequence (looked up): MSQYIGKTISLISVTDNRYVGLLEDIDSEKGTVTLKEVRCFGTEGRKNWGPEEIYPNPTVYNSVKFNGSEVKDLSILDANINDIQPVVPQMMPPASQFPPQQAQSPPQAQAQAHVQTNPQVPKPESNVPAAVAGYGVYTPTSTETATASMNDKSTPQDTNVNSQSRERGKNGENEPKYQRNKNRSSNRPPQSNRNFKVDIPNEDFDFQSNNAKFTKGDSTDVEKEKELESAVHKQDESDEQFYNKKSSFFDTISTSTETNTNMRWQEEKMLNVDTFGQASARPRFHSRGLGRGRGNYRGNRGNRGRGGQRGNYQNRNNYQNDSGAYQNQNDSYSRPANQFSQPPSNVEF

[1] = target: T2, Edc3 (two-hybrid fusion to the DNA binding domain) (S. cerevisiae, UniProt P39998 1-551); test: as above; details: partners not purified
T2 construct: Edc3, S. cerevisiae; The bridge between Pat1 and Rps28 in the wild-type host strain is the strain's endogenous Edc3, the same protein without the fusion; source: yeast two-hybrid fusion
T2 sequence (looked up): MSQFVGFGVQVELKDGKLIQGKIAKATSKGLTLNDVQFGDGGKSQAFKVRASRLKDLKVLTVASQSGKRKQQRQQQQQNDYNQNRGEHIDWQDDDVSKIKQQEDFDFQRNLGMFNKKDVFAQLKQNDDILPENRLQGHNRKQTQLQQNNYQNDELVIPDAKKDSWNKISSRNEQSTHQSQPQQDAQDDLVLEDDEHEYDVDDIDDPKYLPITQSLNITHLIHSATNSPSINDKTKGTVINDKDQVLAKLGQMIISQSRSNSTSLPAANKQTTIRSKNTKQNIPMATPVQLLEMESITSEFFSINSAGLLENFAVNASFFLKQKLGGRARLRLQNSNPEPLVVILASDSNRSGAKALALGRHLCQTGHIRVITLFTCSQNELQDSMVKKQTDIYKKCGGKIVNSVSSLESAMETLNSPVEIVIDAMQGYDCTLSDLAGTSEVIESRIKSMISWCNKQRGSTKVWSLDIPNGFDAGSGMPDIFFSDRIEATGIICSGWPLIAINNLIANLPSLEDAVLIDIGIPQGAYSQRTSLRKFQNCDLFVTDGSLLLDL

B1: full-length ScPat1 (two-hybrid fusion to Gal4AD) (natural protein, S. cerevisiae, UniProt P25644 1-796, looked up)
chain: MSFFGLENSGNARDGPLDFEESYKGYGEHELEENDYLNDETFGDNVQVGTDFDFGNPHSSGSSGNAIGGNGVGATARSYVAATAEGISGPRTDGTAAAGPLDLKPMESLWSTAPPPAMAPSPQSTMAPAPAPQQMAPLQPILSMQDLERQQRQMQQQFMNFHAMGHPQGLPQGPPQQQFPMQPASGQPGPSQFAPPPPPPGVNVNMNQMPMGPVQVPVQASPSPIGMSNTPSPGPVVGATKMPLQSGRRSKRDLSPEEQRRLQIRHAKVEKILKYSGLMTPRDKDFITRYQLSQIVTEDPYNEDFYFQVYKIIQRGGITSESNKGLIARAYLEHSGHRLGGRYKRTDIALQRMQSQVEKAVTVAKERPSKLKDQQAAAGNSSQDNKQANTVLGKISSTLNSKNPRRQLQIPRQQPSDPDALKDVTDSLTNVDLASSGSSSTGSSAAAVASKQRRRSSYAFNNGNGATNLNKSGGKKFILELIETVYEEILDLEANLRNGQQTDSTAMWEALHIDDSSYDVNPFISMLSFDKGIKIMPRIFNFLDKQQKLKILQKIFNELSHLQIIILSSYKTTPKPTLTQLKKVDLFQMIILKIIVSFLSNNSNFIEIMGLLLQLIRNNNVSFLTTSKIGLNLITILISRAALIKQDSSRSNILSSPEISTWNEIYDKLFTSLESKIQLIFPPREYNDHIMRLQNDKFMDEAYIWQFLASLALSGKLNHQRIIIDEVRDEIFATINEAETLQKKEKELSVLPQRSQELDTELKSIIYNKEKLYQDLNLFLNVMGLVYRDGEISELK
notes: Pat1, S. cerevisiae, full-length; pBS2374 is named only as the template for the Gal4AD-Pat1ΔC68 plasmid pBS4907; also called wild type ScPat1; full-length Pat1 protein; source: yeast two-hybrid fusion
For B1, the “fold two-hybrid signal, Δedc3 strain over wild type strain” value (Scd6 (two-hybrid fusion)) was 3 fold and the “fold two-hybrid signal, Δedc3 strain over wild type strain” value [1] was greater than 60 fold.
